Laboratory results from PMC9893218.

Molecular target: trastuzumab
Assay: SEC + native MS

stoichiometry N: 2
Substance: trastuzumab (antibody)
